# Measurements as given in patent US9469685 (UNIVERSITY OF CHICAGO, dated 2016).
# B1: 70-5B03 (antibody, V domains shown)
# VH: QVQLVQSGAEVKKPGSSVKVSCKASGGTFRNFAVSWVRQAPGQGPEWMGGIIAIFGTAKYAQKFQGRVTISADESTRIVQMELSSLRSDDTAIYYCASSSGSYYGDYFDYWGQGTLVTVSS
# VL: EIVMTQSPATLSVSPGERATLSCRASQSVSSNLAWYQQTPGQAPRLLIYAASSRATGIPARFSGSGSGTEFTLSISSLQPEDFAVYYCQQYNNWPRTFGQGTKVEIK
# Molecular target: HA of the 1918 pandemic strain, A/Brevig Mission/1/1918 (H1N1) (influenza A virus A/Brevig …, UniProt Q9WFX3 18-529)
# Sequence (Q9WFX3 18-529 limits assumed): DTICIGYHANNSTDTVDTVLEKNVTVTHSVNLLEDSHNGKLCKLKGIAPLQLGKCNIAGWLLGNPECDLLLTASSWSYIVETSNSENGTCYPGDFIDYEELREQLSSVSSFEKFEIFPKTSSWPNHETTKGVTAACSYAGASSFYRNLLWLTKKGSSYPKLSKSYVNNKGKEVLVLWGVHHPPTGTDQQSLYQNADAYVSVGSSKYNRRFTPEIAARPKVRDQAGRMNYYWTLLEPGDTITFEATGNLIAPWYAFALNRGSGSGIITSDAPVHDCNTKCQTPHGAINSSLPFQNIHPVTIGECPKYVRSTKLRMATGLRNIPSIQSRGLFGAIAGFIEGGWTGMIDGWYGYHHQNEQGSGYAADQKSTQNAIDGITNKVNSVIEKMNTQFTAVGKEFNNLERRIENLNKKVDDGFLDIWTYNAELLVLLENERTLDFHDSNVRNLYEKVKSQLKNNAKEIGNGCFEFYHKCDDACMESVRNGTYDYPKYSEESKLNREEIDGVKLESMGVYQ
# Experiment: ELISA (FIG. 3B, FIG. 8A)
binder,measurement,value
B1,binding result,binds
